Results from the supplement of paper PMC10065799, “High-throughput profiling of sequence recognition by tyrosine kinases and SH2 domains using bacterial peptide display” (eLife, 2023).

Each sequence was assayed against Jak2 (UniProt O60674) (assay: phosphorylation enrichment, bacterial display (enrichment ratio); higher = better substrate or ligand; peptides without Tyr show the background).
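Throughout, for SH2 binding enrichment of the phosphorylated peptide, bacterial display: peptide library displayed on the E. coli surface as eCPX fusions, selected cells deep-sequenced, score is each peptide's frequency after selection divided by its frequency in the input.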
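Throughout, for phosphorylation enrichment, bacterial display: 11-residue human phosphosite peptides and single-mutation variants displayed on the E. coli surface, counted by deep sequencing, each peptide's frequency after selection divided by its frequency in the unselected input library; frequency after pTyr selection over input frequency; kinase dosed for 20-30% of maximal phosphorylation in three min.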

Chain of Jak2 (O60674 whole entry, looked up, the tested form may be a part): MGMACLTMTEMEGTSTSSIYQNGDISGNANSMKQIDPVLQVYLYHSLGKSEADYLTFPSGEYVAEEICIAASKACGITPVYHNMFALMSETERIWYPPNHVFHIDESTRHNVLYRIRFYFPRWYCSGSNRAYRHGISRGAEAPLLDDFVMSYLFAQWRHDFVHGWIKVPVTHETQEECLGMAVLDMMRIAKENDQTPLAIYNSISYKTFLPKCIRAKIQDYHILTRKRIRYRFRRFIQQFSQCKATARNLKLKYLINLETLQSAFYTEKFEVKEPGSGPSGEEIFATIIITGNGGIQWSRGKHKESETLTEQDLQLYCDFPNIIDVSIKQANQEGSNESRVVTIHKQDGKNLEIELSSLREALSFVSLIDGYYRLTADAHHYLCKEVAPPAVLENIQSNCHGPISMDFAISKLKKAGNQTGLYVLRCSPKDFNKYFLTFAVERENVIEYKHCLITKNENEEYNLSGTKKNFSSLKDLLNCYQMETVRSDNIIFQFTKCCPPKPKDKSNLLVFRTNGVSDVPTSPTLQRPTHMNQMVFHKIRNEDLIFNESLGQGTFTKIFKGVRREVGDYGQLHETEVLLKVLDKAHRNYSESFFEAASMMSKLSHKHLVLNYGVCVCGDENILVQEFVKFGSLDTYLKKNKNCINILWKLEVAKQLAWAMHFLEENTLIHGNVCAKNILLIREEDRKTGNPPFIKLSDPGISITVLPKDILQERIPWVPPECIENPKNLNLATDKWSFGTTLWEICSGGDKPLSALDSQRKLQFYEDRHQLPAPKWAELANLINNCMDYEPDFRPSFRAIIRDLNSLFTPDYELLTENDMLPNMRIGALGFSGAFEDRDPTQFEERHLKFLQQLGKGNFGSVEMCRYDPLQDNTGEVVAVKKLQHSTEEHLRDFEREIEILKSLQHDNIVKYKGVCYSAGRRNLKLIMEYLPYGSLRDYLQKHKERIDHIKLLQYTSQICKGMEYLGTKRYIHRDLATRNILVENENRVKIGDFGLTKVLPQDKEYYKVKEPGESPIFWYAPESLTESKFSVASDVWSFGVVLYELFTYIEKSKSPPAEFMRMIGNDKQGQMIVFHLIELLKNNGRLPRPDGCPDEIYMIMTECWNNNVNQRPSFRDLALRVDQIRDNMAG

Row | Sequence | phosphorylation enrichment
1 | RPFRPYIIRGM [LRP5_Y1531_YF] | 0.748
2 | RHSGSYLVTSV [APC_Y2838] | 0.963
3 | KAWTIYRPEDS [ZBP1_Y165] | 1.17
4 | SRVTQYERNFE [SNX1_Y463_D466N] | 0.662
5 | PQGVRYIFTID [DCX_Y103_YF] | 1.89
6 | AQQPIYIRVEG [NLRP7_Y318_V319I] | 0.955
7 | NVDGKYSFLKV [GRM3_Y478_G475D_YF] | 0.719
8 | LRGEDCGFSVD [PRKCI_Y430_Y430C] | 2.49
9 | VDASYCGGRGV [ANTXR2_Y381_Y381C] | 0.573
10 | VTPVMYTYDEY [COL10A1_Y623_G618V] | 0.917
11 | IRDLKYTIENP [SND1_Y178] | 1.19
12 | AVSEGYKDFRA [CDA_Y79] | 0.553
13 | GHLYACDWISI [BEST1_Y227_Y227C] | 1.18
14 | LKYAIYFEVRE [LAMA2_Y1258_A1261V] | 2.44
15 | PRARTYCYKQE [KLHDC9_Y175_S171R] | 0.981
16 | DTKDDYSALSV [IL17RB_Y457_N458S] | 0.928
17 | ADEEEYEIIAA [FEStide_E_2014] | 1.45

Row | Sequence | phosphorylation enrichment
18 | KHCEDYVFSYN [DSC1_Y846_C848F] | 1.08
19 | TDLAFYLVREG [ASL_Y376_K380E_YF] | 1.24
20 | SLQSEYVHYGG [CDC14A_Y591] | 0.655
21 | CQAHGYFCQPI [STK11_Y156_L160P] | 0.615
22 | NHQFDYTFHWT [CSNK1A1_Y294_D297H_YF] | 1.09
23 | EEVKAYLDFGE [CHAC2_Y78_R82G] | 1.62
24 | ENAGYYFRVSA | 1.21
25 | NTPNTYLRVNV [ADD2_Y440] | 0.908
26 | ALIKAYVKAVA [SMN1_Y43_D44V] | 1.12
27 | VMTLDYSKTVV [SETD2_Y770_V768L] | 0.775
28 | GINDDYGQLKN [NBN_Y679] | 0.829
29 | SLQSEYVHFGG [CDC14A_Y591_YF] | 0.875
30 | KAIMTYVSSFY [ACTN4_Y260] | 1.04
31 | YSNKLYYQLEQ [PDPR_Y109] | 1.76
32 | SDVDLYQVRIA [PSMD9_Y70_T74I] | 1.04
33 | LENSTYQFIHV [CRB1_Y760_R764H_YF] | 1.19

What follows are sequences tested against Grb2 SH2 (UniProt P62993) (assay: SH2 binding enrichment of the phosphorylated peptide, bacterial display (enrichment ratio); higher = better substrate or ligand; peptides without Tyr show the background).

Row | SH2 binding enrichment | Sequence
34 | 0.735 | RPFRPYIIRGM [LRP5_Y1531_YF]
35 | 0.746 | KAWTIYRPEDS [ZBP1_Y165]
36 | 0.845 | SRVTQYERNFE [SNX1_Y463_D466N]
37 | 1.03 | AQQPIYIRVEG [NLRP7_Y318_V319I]
38 | 1.06 | NVDGKYSFLKV [GRM3_Y478_G475D_YF]
39 | 0.925 | LRGEDCGFSVD [PRKCI_Y430_Y430C]
40 | 0.748 | IRDLKYTIENP [SND1_Y178]
41 | 0.399 | LKYAIYFEVRE [LAMA2_Y1258_A1261V]
42 | 1.27 | PRARTYCYKQE [KLHDC9_Y175_S171R]
43 | 0.956 | DTKDDYSALSV [IL17RB_Y457_N458S]
44 | 0.711 | ADEEEYEIIAA [FEStide_E_2014]
45 | 1.15 | CQAHGYFCQPI [STK11_Y156_L160P]
46 | 0.756 | ALIKAYVKAVA [SMN1_Y43_D44V]
47 | 0.845 | VMTLDYSKTVV [SETD2_Y770_V768L]
48 | 0.92 | GINDDYGQLKN [NBN_Y679]
49 | 0.826 | YSNKLYYQLEQ [PDPR_Y109]
50 | 0.789 | SDVDLYQVRIA [PSMD9_Y70_T74I]

The remaining lines, values behind:

Row | Sequence | SH2 binding enrichment
51 | RHSGSYLVTSV [APC_Y2838] | 0.791
52 | PQGVRYIFTID [DCX_Y103_YF] | 0.602
53 | VDASYCGGRGV [ANTXR2_Y381_Y381C] | 0.62
54 | VTPVMYTYDEY [COL10A1_Y623_G618V] | 1.05
55 | AVSEGYKDFRA [CDA_Y79] | 0.687
56 | GHLYACDWISI [BEST1_Y227_Y227C] | 0.799
57 | KHCEDYVFSYN [DSC1_Y846_C848F] | 0.806
58 | TDLAFYLVREG [ASL_Y376_K380E_YF] | 0.634
59 | SLQSEYVHYGG [CDC14A_Y591] | 0.587
60 | NHQFDYTFHWT [CSNK1A1_Y294_D297H_YF] | 1.09
61 | EEVKAYLDFGE [CHAC2_Y78_R82G] | 0.73
62 | ENAGYYFRVSA | 0.788
63 | NTPNTYLRVNV [ADD2_Y440] | 0.927
64 | SLQSEYVHFGG [CDC14A_Y591_YF] | 0.899
65 | KAIMTYVSSFY [ACTN4_Y260] | 0.86
66 | LENSTYQFIHV [CRB1_Y760_R764H_YF] | 0.94
